B1: HDV Ribozyme (parent)
chain: GGCCGGCAUGGUCCCAGCCUCCUCGCUGGCGCCGGCUGGGCAACAUUCCGAGGGGACCGUCCCCUCGGUAAUGGCGAAUGGGACCCA

Variants of: B1
Experiment: self-cleavage, relative activity (ratio to wild type); higher = more cleavage; co-transcriptional

Variant | self-cleavage
U23C U69G | 0.739
U23C U69A | 0.8
C24A G29C | 0.136
C24A G67C | 0.739
G25A C61A | 0.201
C24U G34U | 0.17
U23G G34U | 0.0959
C24G C63U | 0.0875
C24G C63A | 0.18
C24G U37C | 0.119
G25U G28A | 0
U23G G76C | 0.684
G25U C57G | 0.208
G25U C57A | 0.192
C24G U47C | 0.0462
G25A A45U | 0.0489
G25A A45C | 0.227
G25U G35A | 0.0415
G25C U60C | 0.0504
C24G U65C | 0.224
C24U C48A | 0.692
C24U C48U | 0.604
G25C C36U | 0.0978
C24A C84U | 0.587

Variant | self-cleavage
U23G C66A | 0.724
U23G U65C | 0.864
C24U A45G | 0.373
C24U U79C | 0.161
G25U G59A | 0.104
G25U G59C | 0.0997
G25U G59U | 0.0511
G25A C48U | 0.264
C24G C36G | 0.0923
C24G C36A | 0
U23G A70U | 0.492
G25A C30U | 0.143
C24A A83U | 0.415
C24A A83C | 0.192
U23G A43U | 0.219
G25U C85A | 0.125
G25U C85G | 0.0755
C24G G81A | 0.0332
C24U C64G | 0.779
C24A U72A | 0.271
G25C U65A | 0.155
G25A C84A | 0.175
U23G C33A | 0
G25U G53C | 0.155

Variant | self-cleavage
G25C A87G | 0.174
G25U C62U | 0.0615
U23G G25U | 0.0594
C24U G29A | 0.0415
G25A G40U | 0.161
U23G U60A | 0.831
G25C G40U | 0.0563
G25C G40C | 0.156
C24U G76U | 0.917
U23G C58G | 0.72
U23G C58U | 0.582
U23G G80A | 0.134
U23G G80U | 0.129
U23G A45C | 0.151
U23G A45G | 0.962
C24U G25C | 0.125
C24U G25A | 0.181
C24A A43C | 0.0415
G25C C57G | 0.119
G25C A51C | 0.128
C24U G80C | 0.179
U23C G81C | 0.249
G25C U37C | 0.0554
G25A A51G | 0.269

Variant | self-cleavage
C24A U46C | 0.269
C24A U46G | 0.554
G25A C66A | 0.287
C24A C86U | 0.633
C24U G55C | 0.729
U23G G28C | 0
U23C G80A | 0.394
U23C G80U | 0.16
U23C G80C | 0.188
C24A U65C | 0.658
C24U U47C | 0.739
U23G G67U | 0.789
C24G G35U | 0
G25C C44G | 0.101
G25C C44A | 0.185
G25A G82U | 0.119
C24G A83G | 0.153
C24U C33G | 0.166
C24U C33A | 0.0845
C24U A70U | 0.598
G25A C64U | 0.204
G25A C64G | 0.13
U23G G39A | 0.17
G25U C41U | 0.188

Variant | self-cleavage
U23C U27G | 1.06
C24G U69G | 0.332
C24G U69C | 0.0354
G25A C41U | 0.155
C24U C41A | 0.608
C24A U79A | 0.227
C24U A83G | 0.394
C24U A83C | 0.219
C24U A83U | 0.198
C24A G38U | 0.0791
C24A C62G | 0.554
C24A U47C | 0.508
C24A U47G | 0.434
C24A G81A | 0.0852
C24A G81C | 0.17
G25A G54C | 0.138
C24G G80A | 0.0791
C24G G80U | 0.0746
C24U A43G | 0
C24U A43U | 0.182
G25A G55C | 0.191
C24U C61G | 0.745
C24G U79C | 0.165
C24G U79G | 0

Variant | self-cleavage
C24A G35A | 0.212
C24U A51U | 0.681
C24U A51C | 0.767
U23G C32G | 0.237
G25A G34C | 0.229
G25A G34A | 0.0863
U23G G40U | 0.431
C24G G39C | 0.18
C24G G39A | 0.0845
G25A A43U | 0.0437
C24G C57G | 0.192
G25C C75A | 0
C24U A78U | 0.172
C24U G68C | 0.456
C24U G68U | 0.891
C24U G68A | 0.831
C24A C75G | 0.0898
C24A C75U | 0.169
G25U A77C | 0.0504
G25A C44U | 0.107
G25A C44A | 0
G25C U27C | 0.128
G25C U27G | 0
G25C C64G | 0.0573

Variant | self-cleavage
G25C G68U | 0.161
G25U C44A | 0.0852
G25U C44U | 0.119
U23C U79G | 0.883
C24G C49U | 0.115
C24A G59C | 0.8
U23G C44G | 0.277
U23C U72C | 0.665
C24G G73C | 0.107
C24A C26A | 0.743
U23G C26G | 0.831
C24U U37A | 0.18
C24U U37C | 0.753
C24U A71C | 0.453
G25A G50A | 0.406
G25A G50U | 0.242
G25C G35U | 0.0692
C24A C48A | 0.717
C24A C49G | 0.787
G25C C26A | 0.196
G25C C26G | 0.731
G25U G31U | 0.0875
G25U G31C | 0.101

Source: the RNAGym collection of RNA variant scans (doi:10.7554/elife.80360)
